Test results from PMC10085042 (PLOS ONE, 2023).

Key:
crystal structure = target: the molecule itself; test: crystal structure
SARS-CoV-2 nsp9 = target: T1, SARS-CoV-2 nsp9 (SARS-CoV-2, UniProt P0DTD1); test: crystal structure; conditions: both partners purified
T1 construct: also called nsp9_(COV19); Nsp9_(COV19)

B1: SARS-CoV-2 nsp9 (natural protein, UniProt P0DTD1 4141-4253, looked up)
chain: NNELSPVALRQMSCAAGTTQTACTDDNALAYYNTTKGGRFVLALLSDLQDLKWARFPKSDGTGTIYTELEPPCRFVTDTPKGPKVKYLYFIKGLNNLNRGMVLGSLAATVRLQ
notes: also called nsp9_(COV19); Nsp9_(COV19)
**Q.** Does B1 bind (crystal structure)?
**A.** binds

B2: anti-nsp9 VHH_(2nsp23) (VHH)
VHH: QVQLQESGGGLVQPGGSLRLSCAASGLAFSMYTMGWFRQAPGKEREFVAMIISSGDSTDYADSVKGRFTISRDNGKNTVYLQMDSLKPEDTAVYYCAAPKFRYYFSTSPGDFDSWGQGTQVTVSS
**Q.** Does B2 bind (SARS-CoV-2 nsp9)?
**A.** binds
